Experimental data from patent publication US10065993B2, “Peptides and peptide/active compound conjugates for renal targeting” (MERCK PATENT GMBH, priority 2013, dated 2018).
Ends that are not written are not given here. Peptide text beside a SMILES is read from it. * marks the point of attachment. ξ: configuration not given here. Lipoyl(6ξ) = O=C(CCCCC1CCSS1)*

Tests used:
[1] = test system: kidneys (i.e. proximal tubule cells, PTCs); conditions: in vivo; cited from earlier work
[2] = test system: kidney; test: Scintigraphic / SPECT distribution of radiolabelled peptides and conjugates (kidney selectivity); parameters: species or system NMRI mice; conditions: mouse, in vivo; for kidney specificity: iv
Procedure: The labelling is carried out using a 1 mM stock solution of the peptide to be labelled in water (dimethyl sulfoxide (DMSO) may have to be added for better solubility). Tyrosine-containing peptides are labelled with iodine-123, iodine-125 or iodine-131 (Perkin-Elmer, Waltham, Mass., USA) by means of the chloramine-T method. To this end, 20 μl of phosphate buffer (0.25 M, pH 7.4) are added to 10 μl of the stock solution, and the desired amount of radioactive iodine is added. For the labelling, 5 μl of chloramine-T (2 mg/ml of H2O) are added. The reaction is carried out for 30 seconds and is subsequently terminated using 10 μl of a saturated methionine solution. In order to separate off free iodine and by-products, the reaction mixture is purified by means of semipreparative HPLC (Chromolith RP-18e, 100×4.6 mm). The separation is carried out using a linear gradient from 0.1% of TFA in water to 0.1% of TFA in acetonitrile in 10 minutes (flow rate: 2 ml/min, UV absorption at 214 nm, γ detection). The solvent is subsequently removed in a rotary evaporator, and the labelled peptide is taken up in the desired buffer.
The tyrosine-containing peptides are labelled with ^125iodine by means of the chloramine-T method. For the labelling, a 1 mM stock solution in water is used. If necessary, DMSO is added for better solubility. To this end, 20 μl of phosphate buffer (0.25 M, pH 7.4) are added to 10 μl of the stock solution, and the desired amount of radioactive iodine is added. The labelling is carried out using 5 μl of chloramine-T (2 mg/ml of H2O). The reaction is carried out for 30 seconds and is subsequently terminated using 10 μl of a saturated methionine solution.
After the labelling, the peptide is purified by means of semi-preparative HPLC in order to remove the excess free iodine and other by-products. 100 μl of the 0.1 mM stock solution are in each case used for the injection. Before the injection, the radioactivity is recorded by means of a Geiger counter. […]

Compound | kidney specificity [2] | also measured
C[C@@H](O)[C@@H]1NC(=O)[C@H](CCCCN)NC(=O)[C@@H](Cc2c[nH]c3ccccc23)NC(=O)[C@H](Cc2ccc(O)cc2)NC(=O)[C@@H](NC(=O)[C@@H](Cc2ccccc2)NC(=O)CN2CCN(CC(=O)O)CCN(CC(=O)O)CCN(CC(=O)O)CC2)CSSC[C@@H](C(=O)N[C@H](CO)[C@@H](C)O)NC1=O [DOTATOC] |  | uptake by the kidneys [1]: about 20%
NCCCCC(NC(=O)C(CCC(=O)O)NC(=O)C(CCC(=O)O)NC(=O)C(CCC(=O)O)NC(=O)C(CCCCNC(=O)CCCCC1CCSS1)NC(=O)C(CCCCN)NC(=O)C(CCCCN)NC(=O)C(CCC(=O)O)NC(=O)C(CCC(=O)O)NC(=O)C(CCC(=O)O)NC(=O)C(CCCCNC(=O)CCCCC1CCSS1)NC(=O)C(CCCCN)NC(=O)C(CCCCN)NC(=O)C(CCC(=O)O)NC(=O)C(CCC(=O)O)NC(=O)C(CCC(=O)O)NC(=O)C(CCCCNC(=O)CCCCC1CCSS1)NC(=O)C(CCCCN)NC(=O)C(CCCCN)NC(=O)C(N)Cc1ccc(O)cc1)C(N)=O (stereo not shown) [y(KKKε(lipoic acid)EEE)3K] (H-YKKK(Lipoyl(6ξ))EEEKKK(Lipoyl(6ξ))EEEKKK(Lipoyl(6ξ))EEEK-NH2; configuration not given here) | high kidney specificity | 
(APASLYN)2: dimer of literature kidney-selective peptide APASLYN (Denby et al.), SEQ ID NO: 90 (APASLYNAPASLYN; not fully specified) |  | kidney selectivity [2]: already inadequate
diacetylcaffeic acid (KKEEE)3K: diacetylcaffeic acid bonded at the N terminal of y(KKEEE)3K (KKEEEKKEEEKKEEEK-NH2; not fully specified (N-terminus)) | retain their high kidney specificity | 
